Two molecules from patent US20190002549A1 (I MAB BIOPHARMA, published 2019) can be followed below.

In test [1] the target is T1, recombinant rhesus GM-CSF protein (rhesus, UniProt Q9GL44 18-144).
T1 construct: Bought recombinant protein (Genscript)
Briefly: ELISA, rhesus GM-CSF coated at 1 µg/ml. On the procedure:
(§1) Recombinant human or rhesus GM-CSF protein (Genscript) was coated at 1 μg/ml in PBS onto microtiter plates for 2 h at room temperature (RT). After coating of antigen the wells were blocked with PBS/0.05% Tween (PBST) with 1% BSA for 1 h at RT. After washing of the wells with PBST, different concentrations of anti-GM-CSF antibodies were added to the well and incubated for 1 at RT. For detection of the binding antibodies, the HRP-conjugated secondary antibodies against mouse Fc (Jackson Immuno Research) were added, followed by the addition of fluorogenic substrates (Roche). Between all incubation steps, the wells of the plate were washed with PBST three times. Fluorescence was measured in a TECAN Spectrafluor plate reader.

Test [2] deals with T2, recombinant human GM-CSF protein (human, UniProt P04141 18-144).
T2 construct: Bought recombinant protein (Genscript); also called biotinylated human GM-CSF protein
T2 sequence (P04141 18-144 limits assumed): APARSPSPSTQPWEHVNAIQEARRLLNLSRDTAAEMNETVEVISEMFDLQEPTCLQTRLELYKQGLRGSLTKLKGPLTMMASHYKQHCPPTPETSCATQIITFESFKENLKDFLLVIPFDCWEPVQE
Kind of test: ELISA, human GM-CSF coated at 1 µg/ml. How it is done:
as §1

Test [3] deals with T2, recombinant human GM-CSF protein. Kind of test: cell-based or functional assay.
The target is the same in test [4]. Briefly: competition ELISA: antibody titrated with biotinylated human GM-CSF (0.05 ug/ml) on coated human GM-CSF receptor alpha (CD116); signal is GM-CSF bound to the receptor. How it is done:
After coating of antigen the wells were blocked with PBS/0.05% Tween (PBST) with 1% BSA for 1 h at RT. After washing of the wells with PBST, different concentrations of anti-GM-CSF antibodies were added to the well in the presence of biotinylated human GM-CSF protein (0.05 μg/ml) and incubated for 1 hr at RT.
For detection of the binding of biotinylated GM-CSF to the coated receptor, the HRP-conjugated Streptavidin was added, followed by the addition of fluorogenic substrates (Roche). Between all incubation steps, the wells of the plate were washed with PBST three times. Fluorescence was measured in a TECAN Spectrafluor plate reader.

Test [5] has the same target. Briefly: SPR Biacore T200, antibody captured by anti-mouse Fc, GM-CSF as analyte, 25 C, 1:1 model. On the procedure: FIG. 4 plots the binding kinetics of 23F4 and 50C5 with recombinant human GM-CSF. […] The binding kinetics assay of antibody to antigen was performed using Biacore T200 system through a mouse antibody capture approach. The anti-mouse Fc IgG were immobilized on CMS sensor chip according to the manufacturer's instruction. The test antibody was injected and captured by the immobilized anti-mouse Fc IgG. And then serial concentrations of the antigen were individually injected, and the binding profile was recorded for each concentration of antigen analyte, respectively. The assay system was regenerated by injection of 10 mM Glycine-HCL pH 1.5 for 30 seconds. The running buffer was HBS-EP+ (10 mM HEPES, pH 7.4, 150 mM NaCl, 3 mM EDTA and 0.05% P20). The assay temperature was 25° C., and the association and dissociation time were 180 and 600 seconds, respectively.

T1 sequence (Q9GL44 entry or part of it limits assumed): as the sequence (P04141 18-144 limits assumed) above, with S9G, E38K, I43V, T53S, R67Q, E104Q counted along it

B1: 23F4 (antibody, V domains shown)
VH: QVQLQQSGPELVKPGTSMKISCKTSDYTLTSHYLHWVKQRPGQGLEWIGWIFPGDDKTKYNEKFKGKATLTSDKTSNTAYMQLSSLTSEESAVYFCARGTKYLNWNFDVWGTGTTVTVSS
VL: DIVLTQPQKFLSTSVGDRVSVTCKANQNVGTTLAWYQQKPGQSPKALIYSASYRYSGVPDRFTGSGSGTDFTLTISNVQSEDLAEYFCHQYTTYPLTFGGGTKLEIK
notes: Mouse monoclonal antibody from a hybridoma; also called 23F4 antibody; murine antibody 23F4
Regarding B1, in test [1], the half-maximal effective concentration (EC50) stood at 0.0102 µg/mL. Moreover, in test [2], the EC50 came to 0.0118 µg/mL. Besides, in test [3], the “IC50 in the inhibition of TF-1 proliferation” value is ~0.0109 µg/mL. Also, the “IC50 (read off the curve)” value in test [4] is ~1 µg/mL. Moreover, in test [5], the dissociation constant (Kd) worked out at 0.0417 nM, the off-rate (koff) came to 3.64e-05 s⁻¹ and the kon stood at 872000 M⁻¹ s⁻¹.

B2: 50C5 (antibody, V domains shown)
VH: QVQLQQSAAELVRPGASVKMSCKASGYIFTPYSIHWIKQRPGQGLEWIGYINPSTGYIEYNQHFKDRTTLTADKSSSTAYMQLRSLTSEDSAVYYCARGGDYEGYFDYWGQGTTLTVSS
VL: DIQMTQSPDSLSASVGETVTITCRLNENIYSFLAWYQQRQGKSPQLLVYNAETLAEDVPSRFSGSGSGTQFSLKISSLQTDDFGTYYCQQHYGTPYTFGGGTNLEIE
notes: Mouse monoclonal antibody from a hybridoma; also called 5005 (misprint of 50C5); murine antibody 50C5
On to B2, for which, in test [1], the EC50 stood at 0.0217 µg/mL. For the same molecule, in test [2], the EC50 was determined as 0.0146 µg/mL. Moreover, in test [3], the “IC50 in the inhibition of TF-1 proliferation” value was ~0.0109 µg/mL. In test [5], the Kd turned out to be 0.0443 nM, the off-rate (koff) was found to be 0.00012 s⁻¹ and the on-rate constant (kon) came to 2.72e+06 M⁻¹ s⁻¹.
